Laboratory results: article PMC10167072, “Human granzyme B binds Plasmodium falciparum Hsp70-x and mediates antiplasmodial activity in vitro” (Cell Stress & Chaperones, 2023)

Assays:
[1] = target: full-length PfHsp70-xF (P. falciparum); experiment: SPR; Hsp70 immobilised (100 µg/mL) on CMD 3D 500L chip, GrB analyte 0-2000 nM, 25 °C, PBS-Tween 20 with 20 mM EDTA pH 7.4, 25 μL/min, 1:1 Langmuir global fit; with ADP
[2] = target: PfHsp70-xT, truncated PfHsp70-x lacking the C-terminal EEVN residues (P. falciparum); experiment: as above
[3] = target: full-length PfHsp70-xF (P. falciparum); experiment: SPR; Hsp70 immobilised (100 µg/mL) on CMD 3D 500L chip, GrB analyte 0-2000 nM, 25 °C, PBS-Tween 20 with 20 mM EDTA pH 7.4, 25 μL/min, 1:1 Langmuir global fit; no nucleotide
[4] = target: PfHsp70-xT, truncated PfHsp70-x lacking the C-terminal EEVN residues (P. falciparum); experiment: as above
[5] = target: full-length PfHsp70-xF (P. falciparum); experiment: SPR; Hsp70 immobilised (100 µg/mL) on CMD 3D 500L chip, GrB analyte 0-2000 nM, 25 °C, PBS-Tween 20 with 20 mM EDTA pH 7.4, 25 μL/min, 1:1 Langmuir global fit; with ATP
[6] = target: PfHsp70-xT, truncated PfHsp70-x lacking the C-terminal EEVN residues (P. falciparum); experiment: as above
human granzyme B = target: T1, human granzyme B (human, UniProt P10144 19-247); experiment: SPR; GrB immobilised on the chip, TKD peptides injected as analytes at 0, 125, 500, 750 and 1000 nM, 25 °C, 1:1 Langmuir global fit; no nucleotide; conditions: both partners purified
T1 construct: granzyme B, human, serine protease; Bought protein; also called GrB; human GrB; source: bought: Hölzel Diagnostics, Cologne, Germany

## human granzyme B (from UniProt P10144 19-247) (enzyme)
[1]
  Kd: 0.001 µM
  koff: 7.06e-06 s⁻¹
  kon: 3850 M⁻¹ s⁻¹
[2]
  Kd: 2.82 µM
  koff: 2.24e-05 s⁻¹
  kon: 2560 M⁻¹ s⁻¹
[3]
  Kd: 0.004 µM
  koff: 1.64e-05 s⁻¹
  kon: 4350 M⁻¹ s⁻¹
[4]
  Kd: 2.37 µM
  koff: 0.000732 s⁻¹
  kon: 2140 M⁻¹ s⁻¹
[5]
  Kd: 0.001 µM
  koff: 2.05e-05 s⁻¹
  kon: 6990 M⁻¹ s⁻¹
[6]
  Kd: 4.2 µM
  koff: 0.000123 s⁻¹
  kon: 5870 M⁻¹ s⁻¹

B1: synthetic TKD peptide representing the 14-mer TKD motif of PfHsp70-x (peptide)
peptide: TKDNNLLGKFQLEG
notes: 14-mer TKD motif of PfHsp70-x, Plasmodium falciparum; also called PfHsp70-x TKD; source: synthetic peptide (Genscript, Piscataway, NJ, USA)
Human granzyme B
  Kd: 0.02 µM
  koff: 3.62e-05 s⁻¹
  kon: 3130 M⁻¹ s⁻¹

B2: TKD motif of hHsp70 (14-mer peptide) (peptide)
peptide: TKDNNLLGRFELSG
notes: 14-mer TKD motif of human Hsp70, amino acids 450-463; also called hHsp70 TKD motif
Human granzyme B
  Kd: 0.004 µM
  koff: 2.17e-05 s⁻¹
  kon: 2930 M⁻¹ s⁻¹
